From publication PMC12079668
Blank lines part the entries; values can stand above or below the binder they belong to.

How the values were obtained:
[1] = target: T1, zebrafish Cavin4a HR1 domain (residues 16-123) (zebrafish) (UniProt A1L260); assay: ITC; NbA12 at 500 μM or NbB7 at 400 μM titrated into 30 μM (monomer) cavin HR1 domain or His-MBP full-length mC1; GF150 buffer (20 mM HEPES pH 7.4, 150 mM NaCl), 25°C; fitted with a 1:1 binding ratio
T1 sequence: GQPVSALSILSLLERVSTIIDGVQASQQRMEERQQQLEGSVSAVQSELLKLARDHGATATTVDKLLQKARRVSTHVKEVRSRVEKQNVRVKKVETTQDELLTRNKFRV

nanobody NbB7 = assay: ITC; details: chain shown with the change

Kd [1]: 1490 nM
B1: Nanobody NbB7 (VHH)
VHH: QVQLQESGGGLVQAGGSLRLSCAVSGIRVNVNAMYWYRQAPGKQRELVAIITTFGSTNYADSAKGRFTISRDNTKNTVYLQMDNLKPEDTAVYYCNAPQFTDRYWGQGTQVTVSS

Kd (nanobody NbB7): 892 nM
B2: mouse Cavin1 HR1 domain (residues 45–155), His-Ub-tagged, O54724 K115Q; R117Q; K118Q; K124Q; R127Q (protein)
chain: LIKSDQVNGVLVLSLLDKIIGAVDQIQLTQAQLEERQAEMEGAVQSIQGELSKLGKAHATTSNTVSKLLEQVQQVSVNVQTVQGSLERQAGQIKKLEVNEAELLRRRNFKV
